From US20030049246A1

Legend:
[1] = target: SHH (chick, endogenous in cerebellar cortical explants) (chick) (UniProt Q91035); assay: cell-based or functional assay
[2] = target: SHH (mouse, endogenous in purified granule neuron precursor aggregates) (mouse) (UniProt Q62226); assay: cell-based or functional assay
Sequence of SHH (mouse, endogenous in purified granule neuron precursor aggregates) (mouse) (Q62226 25-198 limits assumed): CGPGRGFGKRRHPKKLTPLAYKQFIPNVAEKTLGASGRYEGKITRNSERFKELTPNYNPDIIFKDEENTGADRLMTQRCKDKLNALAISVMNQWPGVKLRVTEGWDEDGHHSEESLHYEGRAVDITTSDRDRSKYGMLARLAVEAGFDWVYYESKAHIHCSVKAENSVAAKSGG

Sequence of SHH (chick, endogenous in cerebellar cortical explants) (chick) (Q91035 27-200 limits assumed): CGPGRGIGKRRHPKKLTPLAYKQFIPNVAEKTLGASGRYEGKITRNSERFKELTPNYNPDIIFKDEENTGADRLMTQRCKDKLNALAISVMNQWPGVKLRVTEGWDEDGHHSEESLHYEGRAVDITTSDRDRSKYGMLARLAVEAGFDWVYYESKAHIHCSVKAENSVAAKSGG

fold decrease in BrdU incorporation inside D10 chick cerebellar explants (96 h) [1]: 3 to 4 fold | fold decrease in proliferation of purified mouse granule neuron aggregates [2]: 3 to 4 fold
Substance: blocking anti-SHH monoclonal antibody 5E1
